In US20250277045A1 (KEYMED BIOSCIENCES, published 2025):

Tests used:
[1] = target: human CD3 on T cells (Jurkat cells; human peripheral blood CD4+ and CD8+ T cells) (human, UniProt P07766 23-207); assay: cell-based or functional assay
[2] = target: T1, human BCMA on cells (CHO-hBCMA clone 2C2; NCI-H929; RPMI-8226) (human, UniProt Q02223 1-184); assay: cell-based or functional assay
T1 sequence (looked up): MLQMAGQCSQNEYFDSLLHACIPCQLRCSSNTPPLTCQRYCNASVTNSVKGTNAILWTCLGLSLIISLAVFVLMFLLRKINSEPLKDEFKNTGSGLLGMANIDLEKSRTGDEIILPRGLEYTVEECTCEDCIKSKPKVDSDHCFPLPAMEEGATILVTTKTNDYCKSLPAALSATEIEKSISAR
For Upregulation of CD25 (%), CD4+T in this document: test concentration or dose not given here.
For Upregulation of CD25 (%), CD8+T in this document: test concentration or dose not given here.
For Upregulation of CD69 (%), CD4+T in this document: test concentration or dose not given here.
For Upregulation of CD69 (%), CD8+T in this document: test concentration or dose not given here.

Sequence of human CD3 on T cells (Jurkat cells; human peripheral blood CD4+ and CD8+ T cells) (P07766 23-207): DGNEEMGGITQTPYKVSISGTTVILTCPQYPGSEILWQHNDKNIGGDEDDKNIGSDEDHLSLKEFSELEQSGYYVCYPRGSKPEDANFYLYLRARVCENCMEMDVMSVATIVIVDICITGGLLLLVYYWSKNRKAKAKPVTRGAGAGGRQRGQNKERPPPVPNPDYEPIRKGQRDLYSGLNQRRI

B1: h29A11-CD3 (bispecific antibody, V domains shown)
VH 1: QVQLVQSGSELKKPGASVKVSCKASGYIFTNFGMNWVREAPGQGLEWMGWINTYTGEQIYADDFKGRFAFSLDTSASTAYLQISSLKAEDTAVYFCARGEIYYGYDVGFVYWGQGTLVTVSS
VL 1: DIVLTQSPASLAVSPGQRATITCRASKSVSTSGYSYMHWYQKKPGQPPKLLIYLASNLESGVPARFSGSGSGTDFTLTINPVEANDTANYYCQHSRELPWTFGQGTKVEIK
VH 2: EVQLVESGGGLVQPGGSLRLSCAASGFTFNTYAMNWVRKAPGKGLEWVGRIRSKYNNYATYYADSVKDRFTISRDDSKNSLYLQMNSLKTEDTAVYYCVRHGNFGNSYVSWFAYWGQGTLVTVSS
VL 2: QAVVTQEPSLTVSPGGTVTLTCRSSTGAVTTSNYANWVQEKPGQAPRGLIGGTNKRAPWTPARFSGSLLGGKAALTITGAQAEDEAEYYCVLWYSNLWVFGGGTKLTVL
Upregulation of CD25 (%), CD4+T [1]: 33% | Upregulation of CD25 (%), CD8+T [1]: 36% | Upregulation of CD25 EC50, CD4+T [1]: 0.45 nM | Upregulation of CD25 EC50, CD8+T [1]: 3.85 nM | Upregulation of CD69 (%), CD4+T [1]: 47% | Upregulation of CD69 (%), CD8+T [1]: 58% | Upregulation of CD69 EC50, CD4+T [1]: 0.37 nM | Upregulation of CD69 EC50, CD8+T [1]: 3.39 nM | Killing EC50 (TDCC, LDH release; PBMC + RPMI-8226) [2]: 0.69 nM

B2: h34G2-CD3 (bispecific antibody, V domains shown)
VH 1: QVQLVQSGSELKKPGASVKVSCKASGYTFTNYGMNWVREAPGQGLEWMGWINTYTGERIYADDFKGRFAFSLDTSASTAYLQISSLKAEDTAVYFCARGEIYYGYDVGFVYWGQGTLVTVSS
VL 1: DIVLTQSPASLAVSPGQRATITCRASKSVSTSGYSYMHWYQKKPGQPPKLLIYLASNLESGVPARFSGSGSGTDFTLTINPVEANDTANYYCQHSRELPWTFGQGTKVEIK
VH 2: EVQLVESGGGLVQPGGSLRLSCAASGFTFNTYAMNWVRKAPGKGLEWVGRIRSKYNNYATYYADSVKDRFTISRDDSKNSLYLQMNSLKTEDTAVYYCVRHGNFGNSYVSWFAYWGQGTLVTVSS
VL 2: QAVVTQEPSLTVSPGGTVTLTCRSSTGAVTTSNYANWVQEKPGQAPRGLIGGTNKRAPWTPARFSGSLLGGKAALTITGAQAEDEAEYYCVLWYSNLWVFGGGTKLTVL
Upregulation of CD25 (%), CD4+T [1]: 27% | Upregulation of CD25 (%), CD8+T [1]: 33% | Upregulation of CD25 EC50, CD4+T [1]: 1.18 nM | Upregulation of CD25 EC50, CD8+T [1]: 1.28 nM | Upregulation of CD69 (%), CD4+T [1]: 42% | Upregulation of CD69 (%), CD8+T [1]: 55% | Upregulation of CD69 EC50, CD4+T [1]: 0.68 nM | Upregulation of CD69 EC50, CD8+T [1]: 0.57 nM | Killing EC50 (TDCC, LDH release; PBMC + RPMI-8226) [2]: 1.02 nM

B3: h15H10-CD3 (bispecific antibody, V domains shown)
VH 1: QVQLVQSGSELKKPGASVKVSCKASGYTFTNFGMNWVREAPGQGLEWMGWINTYTGDLIYGDDFKGRFAFSLDTSASTAYLQISSLKAEDTAVYFCARGEIYYGYDVGFAYWGQGTLVTVSS
VL 1: DIVLTQSPASLAVSPGQRATITCRASKSVSTSGYSYMHWYQKKPGQPPKLLIYLASNLESGVPARFSGSGSGTDFTLTINPVEANDTANYYCQHSRELPWTFGQGTKVEIK
VH 2: EVQLVESGGGLVQPGGSLRLSCAASGFTFNTYAMNWVRKAPGKGLEWVGRIRSKYNNYATYYADSVKDRFTISRDDSKNSLYLQMNSLKTEDTAVYYCVRHGNFGNSYVSWFAYWGQGTLVTVSS
VL 2: QAVVTQEPSLTVSPGGTVTLTCRSSTGAVTTSNYANWVQEKPGQAPRGLIGGTNKRAPWTPARFSGSLLGGKAALTITGAQAEDEAEYYCVLWYSNLWVFGGGTKLTVL
Upregulation of CD25 (%), CD4+T [1]: 36% | Upregulation of CD25 (%), CD8+T [1]: 41% | Upregulation of CD25 EC50, CD4+T [1]: 3.85 nM | Upregulation of CD25 EC50, CD8+T [1]: 2.64 nM | Upregulation of CD69 (%), CD4+T [1]: 58% | Upregulation of CD69 (%), CD8+T [1]: 62% | Upregulation of CD69 EC50, CD4+T [1]: 3.39 nM | Upregulation of CD69 EC50, CD8+T [1]: 0.94 nM | Killing EC50 (TDCC, LDH release; PBMC + RPMI-8226) [2]: 1.83 nM
